Assay results: patent US20130338339A1

Key:
[1] = target: polyclonal human IgG (Gammanorm, Octapharma) (human); assay: gradient elution pH 6 to pH 3 from a column of immobilised ligand; polyclonal IgG (Gammanorm) shows the biggest difference
[2] = target: polyclonal human IgG (Gammanorm, Octapharma) (human); assay: breakthrough on a column of immobilised ligand, 1 mg/ml IgG, pH 7.4, residence time 2.4 min, ligand density 9.6 mg/ml
[3] = target: polyclonal human IgG (Gammanorm, Octapharma) (human); assay: gradient elution pH 6 to pH 3 (0.1 M citrate) from a column of immobilised ligand, pH at peak apex

## Mutant Z(H18S)4: ligand tetramer containing four copies of protein Z, each containing the H18S substitution (designed binder)
[1]
  increase in elution pH compared to Z4: > 1 >pH unit
[2]
  Qb10% (dynamic binding capacity at 10% breakthrough): 36.4 mg/ml resin
  Qb80% (dynamic binding capacity at 80% breakthrough): 65 mg/ml resin
[3]
  elution pH, hIgG (first peak): 5.11 pH
  elution pH, hIgG (second peak): 4.61 pH
